Experiments:
[1] = target: T1, recombinant human PSMA extracellular domain (ECD) protein (human, UniProt Q04609 44-750); test: SPR ProteOn
T1 construct: also called human PSMA ECD

[2] = target: T2, recombinant chimpanzee PSMA extracellular domain (ECD) protein (Pan troglodytes, UniProt Q04609 44-750 (human entry)); test: SPR ProteOn
T2 construct: also called Chimp PSMA ECD; PSMG8
T2 chain: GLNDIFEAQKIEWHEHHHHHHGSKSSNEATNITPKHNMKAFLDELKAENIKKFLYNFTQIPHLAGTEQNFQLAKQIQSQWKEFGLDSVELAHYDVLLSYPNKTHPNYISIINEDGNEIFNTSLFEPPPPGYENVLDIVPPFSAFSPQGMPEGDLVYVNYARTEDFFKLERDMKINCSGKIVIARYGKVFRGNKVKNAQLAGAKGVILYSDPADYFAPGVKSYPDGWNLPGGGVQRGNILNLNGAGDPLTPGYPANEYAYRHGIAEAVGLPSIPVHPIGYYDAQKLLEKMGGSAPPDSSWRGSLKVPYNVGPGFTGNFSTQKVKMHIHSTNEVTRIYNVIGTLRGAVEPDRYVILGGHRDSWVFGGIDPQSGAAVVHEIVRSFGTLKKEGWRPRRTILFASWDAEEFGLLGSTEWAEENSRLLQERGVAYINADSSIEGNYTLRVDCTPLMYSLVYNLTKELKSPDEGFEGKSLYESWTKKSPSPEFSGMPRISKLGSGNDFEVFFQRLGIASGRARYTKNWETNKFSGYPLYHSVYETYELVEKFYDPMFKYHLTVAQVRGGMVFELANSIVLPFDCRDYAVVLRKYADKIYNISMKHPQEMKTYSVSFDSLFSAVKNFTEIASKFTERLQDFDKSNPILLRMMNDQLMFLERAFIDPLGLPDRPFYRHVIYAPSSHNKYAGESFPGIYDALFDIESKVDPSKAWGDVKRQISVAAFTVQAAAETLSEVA

[3] = target: T3, recombinant cynomolgous monkey PSMA extracellular domain (ECD) protein (Macaca fascicularis, UniProt Q04609 48-750 (human entry), biotin on the Avi tag); test: SPR ProteOn
T3 construct: also called cyno PSMA ECD; PSMG1
T3 chain: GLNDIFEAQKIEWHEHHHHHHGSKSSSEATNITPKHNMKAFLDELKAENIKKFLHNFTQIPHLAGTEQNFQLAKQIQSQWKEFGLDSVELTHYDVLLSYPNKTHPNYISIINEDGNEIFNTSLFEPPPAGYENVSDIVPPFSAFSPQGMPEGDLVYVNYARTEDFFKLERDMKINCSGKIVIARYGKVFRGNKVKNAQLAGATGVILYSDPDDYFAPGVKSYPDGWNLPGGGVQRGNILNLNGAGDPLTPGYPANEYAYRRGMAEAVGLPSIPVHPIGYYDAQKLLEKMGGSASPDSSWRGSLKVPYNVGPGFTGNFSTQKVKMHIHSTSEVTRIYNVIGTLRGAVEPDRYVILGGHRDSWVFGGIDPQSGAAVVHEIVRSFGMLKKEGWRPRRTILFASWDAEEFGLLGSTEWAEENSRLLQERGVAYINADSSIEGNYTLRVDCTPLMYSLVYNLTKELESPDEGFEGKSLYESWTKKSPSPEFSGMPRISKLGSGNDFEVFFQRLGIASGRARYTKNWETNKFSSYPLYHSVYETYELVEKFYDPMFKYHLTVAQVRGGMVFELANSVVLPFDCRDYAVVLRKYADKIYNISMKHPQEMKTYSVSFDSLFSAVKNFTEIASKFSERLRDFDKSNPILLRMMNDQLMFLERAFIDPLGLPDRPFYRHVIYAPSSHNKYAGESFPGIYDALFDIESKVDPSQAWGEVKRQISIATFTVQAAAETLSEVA

[4] = target: T1, recombinant human PSMA extracellular …; test: SPR ProteOn; remark: listed apart in the source
[5] = target: T3, recombinant cynomolgous monkey PSMA …; test: SPR ProteOn
[6] = target: T1, recombinant human PSMA extracellular …; test: SPR ProteOn, bsAb captured by anti-Fc
[7] = target: T3, recombinant cynomolgous monkey PSMA …; test: SPR ProteOn, bsAb captured by anti-Fc

B1: PS3B27 (bispecific antibody, human IgG4 S228P, kappa, lambda, F234A L235A)
heavy 1: not shown
light 1: not shown
heavy 2: EVQLVESGGGLVQPGGSLRLSCAASGFTFNTYAMNWVRQAPGKGLEWVARIRSKYNNYATYYAASVKGRFTISRDDSKNSLYLQMNSLKTEDTAVYYCARHGNFGNSYVSWFAYWGQGTLVTVSSASTKGPSVFPLAPCSRSTSESTAALGCLVKDYFPEPVTVSWNSGALTSGVHTFPAVLQSSGLYSLSSVVTVPSSSLGTKTYTCNVDHKPSNTKVDKRVESKYGPPCPPCPAPEAAGGPSVFLFPPKPKDTLMISRTPEVTCVVVDVSQEDPEVQFNWYVDGVEVHNAKTKPREEQFNSTYRVVSVLTVLHQDWLNGKEYKCKVSNKGLPSSIEKTISKAKGQPREPQVYTLPPSQEEMTKNQVSLTCLVKGFYPSDIAVEWESNGQPENNYKTTPPVLDSDGSFLLYSKLTVDKSRWQEGNVFSCSVMHEALHNHYTQKSLSLSLGK
light 2: QTVVTQEPSLTVSPGGTVTLTCRSSTGAVTTSNYANWVQQKPGQAPRGLIGGTNKRAPGTPARFSGSLLGGKAALTLSGVQPEDEAEYYCALWYSNLWVFGGGTKLTVLGQPKAAPSVTLFPPSSEELQANKATLVCLISDFYPGAVTVAWKADSSPVKAGVETTTPSKQSNNKYAASSYLSLTPEQWKSHRSYSCQVTHEGSTVEKTVAPTECS
notes: IgG4 PAA; PSMA arm chains first, then CD3 arm (F405L, R409K); also called PSMB127 x CD3B219; PS2B27
Work on B1 yielded a Kd [1] of 10.3 nM, a Kd [2] of 7.48 nM and a Kd [3] of 7 nM. For the same binder, the Kd [4] was 10.3 nM, the koff [4] was 0.00289 s⁻¹ and the kon [4] was 287000 M⁻¹ s⁻¹. It also gave a Kd [5] of 7 nM, a koff [5] of 0.0011 s⁻¹ and a kon [5] of 159000 M⁻¹ s⁻¹. The Kd [6] was 10.3 nM, the koff [6] was 0.00289 s⁻¹ and the kon [6] was 287000 M⁻¹ s⁻¹. It also gave a Kd [7] of 7 nM, a koff [7] of 0.0011 s⁻¹ and a kon [7] of 159000 M⁻¹ s⁻¹.

B2: PS3B25 (bispecific antibody, human IgG4 S228P, kappa, lambda, F234A L235A)
heavy 1: not shown
light 1: not shown
heavy 2: EVQLVESGGGLVQPGGSLRLSCAASGFTFNTYAMNWVRQAPGKGLEWVARIRSKYNNYATYYAASVKGRFTISRDDSKNSLYLQMNSLKTEDTAVYYCARHGNFGNSYVSWFAYWGQGTLVTVSSASTKGPSVFPLAPCSRSTSESTAALGCLVKDYFPEPVTVSWNSGALTSGVHTFPAVLQSSGLYSLSSVVTVPSSSLGTKTYTCNVDHKPSNTKVDKRVESKYGPPCPPCPAPEAAGGPSVFLFPPKPKDTLMISRTPEVTCVVVDVSQEDPEVQFNWYVDGVEVHNAKTKPREEQFNSTYRVVSVLTVLHQDWLNGKEYKCKVSNKGLPSSIEKTISKAKGQPREPQVYTLPPSQEEMTKNQVSLTCLVKGFYPSDIAVEWESNGQPENNYKTTPPVLDSDGSFLLYSKLTVDKSRWQEGNVFSCSVMHEALHNHYTQKSLSLSLGK
light 2: QTVVTQEPSLTVSPGGTVTLTCRSSTGAVTTSNYANWVQQKPGQAPRGLIGGTNKRAPGTPARFSGSLLGGKAALTLSGVQPEDEAEYYCALWYSNLWVFGGGTKLTVLGQPKAAPSVTLFPPSSEELQANKATLVCLISDFYPGAVTVAWKADSSPVKAGVETTTPSKQSNNKYAASSYLSLTPEQWKSHRSYSCQVTHEGSTVEKTVAPTECS
notes: IgG4 PAA; also called PSMB87 x CD3B219
With B2 the Kd [1] was 5.38 nM, the Kd [2] was 3.54 nM and the Kd [3] was 81.1 nM. It also gave a Kd [4] of 5.38 nM, a koff [4] of 0.00101 s⁻¹ and a kon [4] of 188000 M⁻¹ s⁻¹. For the same binder, the Kd [5] was 81.1 nM, the koff [5] was 0.00797 s⁻¹ and the kon [5] was 98000 M⁻¹ s⁻¹. For the same binder, the Kd [6] was 5.38 nM, the koff [6] was 0.00101 s⁻¹ and the kon [6] was 188000 M⁻¹ s⁻¹. The Kd [7] was 81.1 nM, the koff [7] was 0.00797 s⁻¹ and the kon [7] was 98000 M⁻¹ s⁻¹.
